The target in assay [1] is T1, human LAG-3 (human, UniProt P18627 23-525).
T1 construct: whole, on cells; also called LAG-3 antigen
T1 sequence (looked up): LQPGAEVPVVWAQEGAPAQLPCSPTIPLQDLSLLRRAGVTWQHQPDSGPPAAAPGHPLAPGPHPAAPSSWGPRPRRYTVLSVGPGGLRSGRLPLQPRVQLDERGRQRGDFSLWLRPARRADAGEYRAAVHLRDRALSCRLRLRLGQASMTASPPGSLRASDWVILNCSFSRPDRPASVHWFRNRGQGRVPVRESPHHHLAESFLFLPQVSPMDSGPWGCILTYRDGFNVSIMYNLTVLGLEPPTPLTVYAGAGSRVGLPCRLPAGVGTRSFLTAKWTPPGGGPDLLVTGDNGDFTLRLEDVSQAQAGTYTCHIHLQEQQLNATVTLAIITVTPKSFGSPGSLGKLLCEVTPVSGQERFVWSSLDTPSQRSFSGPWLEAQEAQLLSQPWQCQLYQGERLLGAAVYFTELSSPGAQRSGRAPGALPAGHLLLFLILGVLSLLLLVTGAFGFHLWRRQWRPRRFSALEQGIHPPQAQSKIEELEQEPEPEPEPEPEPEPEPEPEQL
Briefly: flow cytometry on CHO-K1 cells expressing human LAG-3. The procedure: (§1) For the constructed series of bispecific antibodies, the affinity of these samples with antigens was measured by using a flow cytometer. […] Then, an antibody-antigen binding curve was generated based on the geometric mean, raw data of four parameters was plotted by using the […] Prism V6.02 software, and a best fitted value program was compiled to analyze EC₅₀.

Assay [2] has as its target T2, human CD47 (human, UniProt Q08722 19-323).
T2 construct: whole, on cells; also called CD47 antigen; integrin associated protein
The assay can be described thus: flow cytometry on CHO-K1 cells expressing human CD47. The procedure:
as §1

T2 sequence (Q08722 19-323): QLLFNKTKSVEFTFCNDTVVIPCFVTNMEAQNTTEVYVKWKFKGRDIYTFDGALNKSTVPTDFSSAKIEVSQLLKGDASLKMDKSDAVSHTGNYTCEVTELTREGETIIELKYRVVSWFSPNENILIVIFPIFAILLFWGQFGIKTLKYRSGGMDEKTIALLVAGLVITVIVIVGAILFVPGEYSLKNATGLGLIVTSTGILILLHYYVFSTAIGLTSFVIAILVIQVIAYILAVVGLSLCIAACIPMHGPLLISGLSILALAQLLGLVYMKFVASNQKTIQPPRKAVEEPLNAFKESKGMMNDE

B1: bispecific antibody LAG3-E-HC (bispecific antibody, human IgG4 S228P, kappa)
heavy: not shown
light: EIVLTQSPATLSLSPGERATLSCRASENVGTYISWYQQKPGQAPRLLIYGASNRYTGIPARFSGSGSGTDFTLTISSLEPEDFAVYYCGESYGHLYTFGGGTKVEIKRTVAAPSVFIFPPSDEQLKSGTASVVCLLNNFYPREAKVQWKVDNALQSGNSQESVTEQDSKDSTYSLSSTLTLSKADYEKHKVYACEVTHQGLSSPVTKSFNRGEC
notes: Two identical fused chains and two identical natural chains; also called H1 + L0
As for B1, the binding result in assay [1] is “binds”.

B2: bispecific antibody LAG3-G15-HC (bispecific antibody, human IgG4 S228P, kappa)
heavy: not shown
light: EIVLTQSPATLSLSPGERATLSCRASENVGTYISWYQQKPGQAPRLLIYGASNRYTGIPARFSGSGSGTDFTLTISSLEPEDFAVYYCGESYGHLYTFGGGTKVEIKRTVAAPSVFIFPPSDEQLKSGTASVVCLLNNFYPREAKVQWKVDNALQSGNSQESVTEQDSKDSTYSLSSTLTLSKADYEKHKVYACEVTHQGLSSPVTKSFNRGEC
notes: Two identical fused chains and two identical natural chains; also called H5 + L0
B2: in assay [1], the binding result is given as “binds”.

B3: bispecific antibody LAG3-G15-HN (bispecific antibody, human IgG4 S228P, kappa)
heavy: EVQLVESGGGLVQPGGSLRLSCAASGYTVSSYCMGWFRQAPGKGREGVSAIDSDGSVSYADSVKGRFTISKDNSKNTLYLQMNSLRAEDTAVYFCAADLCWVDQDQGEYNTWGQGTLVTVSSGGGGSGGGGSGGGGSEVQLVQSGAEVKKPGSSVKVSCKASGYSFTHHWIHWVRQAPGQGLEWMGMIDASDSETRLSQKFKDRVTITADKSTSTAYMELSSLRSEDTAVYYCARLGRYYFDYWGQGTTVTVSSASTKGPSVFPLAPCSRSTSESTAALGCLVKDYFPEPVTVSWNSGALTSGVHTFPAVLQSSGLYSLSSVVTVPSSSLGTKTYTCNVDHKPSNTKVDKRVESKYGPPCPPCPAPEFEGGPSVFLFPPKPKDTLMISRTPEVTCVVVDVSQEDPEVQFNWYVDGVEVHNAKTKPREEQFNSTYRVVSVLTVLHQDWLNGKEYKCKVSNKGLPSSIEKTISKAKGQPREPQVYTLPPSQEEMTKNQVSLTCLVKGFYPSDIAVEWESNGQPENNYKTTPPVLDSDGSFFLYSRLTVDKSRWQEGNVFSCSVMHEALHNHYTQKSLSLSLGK
light: EIVLTQSPATLSLSPGERATLSCRASENVGTYISWYQQKPGQAPRLLIYGASNRYTGIPARFSGSGSGTDFTLTISSLEPEDFAVYYCGESYGHLYTFGGGTKVEIKRTVAAPSVFIFPPSDEQLKSGTASVVCLLNNFYPREAKVQWKVDNALQSGNSQESVTEQDSKDSTYSLSSTLTLSKADYEKHKVYACEVTHQGLSSPVTKSFNRGEC
notes: Two identical fused chains and two identical natural chains; also called H6 + L0
In the case of B3, the binding result in assay [1] is listed as “binds”.

B4: bispecific antibody LAG3-G9-HC (bispecific antibody, human IgG4 S228P, kappa)
heavy: not shown
light: EIVLTQSPATLSLSPGERATLSCRASENVGTYISWYQQKPGQAPRLLIYGASNRYTGIPARFSGSGSGTDFTLTISSLEPEDFAVYYCGESYGHLYTFGGGTKVEIKRTVAAPSVFIFPPSDEQLKSGTASVVCLLNNFYPREAKVQWKVDNALQSGNSQESVTEQDSKDSTYSLSSTLTLSKADYEKHKVYACEVTHQGLSSPVTKSFNRGEC
notes: Two identical fused chains and two identical natural chains; also called LAGS-G9-HC; H3 + L0
Turning to B4, the binding result in assay [1] is listed as “binds”.

B5: bispecific antibody LAG3-E-HN (bispecific antibody, human IgG4 S228P, kappa)
heavy: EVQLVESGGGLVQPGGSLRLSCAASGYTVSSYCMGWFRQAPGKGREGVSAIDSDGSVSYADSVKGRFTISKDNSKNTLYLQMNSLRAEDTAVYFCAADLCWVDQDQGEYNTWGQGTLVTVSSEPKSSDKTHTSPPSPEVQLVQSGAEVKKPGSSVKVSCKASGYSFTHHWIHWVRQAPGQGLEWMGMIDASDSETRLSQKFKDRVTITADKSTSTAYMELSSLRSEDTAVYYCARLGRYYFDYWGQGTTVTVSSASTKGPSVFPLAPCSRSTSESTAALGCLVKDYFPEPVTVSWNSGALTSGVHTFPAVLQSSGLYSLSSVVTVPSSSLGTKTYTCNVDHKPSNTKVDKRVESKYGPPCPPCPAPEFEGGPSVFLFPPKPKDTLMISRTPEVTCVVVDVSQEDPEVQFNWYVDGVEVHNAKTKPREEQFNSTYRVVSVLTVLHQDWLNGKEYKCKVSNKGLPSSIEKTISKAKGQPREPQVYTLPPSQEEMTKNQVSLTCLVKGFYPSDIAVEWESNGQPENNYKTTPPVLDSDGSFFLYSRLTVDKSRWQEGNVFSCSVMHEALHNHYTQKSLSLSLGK
light: EIVLTQSPATLSLSPGERATLSCRASENVGTYISWYQQKPGQAPRLLIYGASNRYTGIPARFSGSGSGTDFTLTISSLEPEDFAVYYCGESYGHLYTFGGGTKVEIKRTVAAPSVFIFPPSDEQLKSGTASVVCLLNNFYPREAKVQWKVDNALQSGNSQESVTEQDSKDSTYSLSSTLTLSKADYEKHKVYACEVTHQGLSSPVTKSFNRGEC
notes: Two identical fused chains and two identical natural chains; also called H2 + L0
As to B5, the binding result in assay [1] is “binds”.

B6: bispecific antibody LAG3-G9-HN (bispecific antibody, human IgG4 S228P, kappa)
heavy: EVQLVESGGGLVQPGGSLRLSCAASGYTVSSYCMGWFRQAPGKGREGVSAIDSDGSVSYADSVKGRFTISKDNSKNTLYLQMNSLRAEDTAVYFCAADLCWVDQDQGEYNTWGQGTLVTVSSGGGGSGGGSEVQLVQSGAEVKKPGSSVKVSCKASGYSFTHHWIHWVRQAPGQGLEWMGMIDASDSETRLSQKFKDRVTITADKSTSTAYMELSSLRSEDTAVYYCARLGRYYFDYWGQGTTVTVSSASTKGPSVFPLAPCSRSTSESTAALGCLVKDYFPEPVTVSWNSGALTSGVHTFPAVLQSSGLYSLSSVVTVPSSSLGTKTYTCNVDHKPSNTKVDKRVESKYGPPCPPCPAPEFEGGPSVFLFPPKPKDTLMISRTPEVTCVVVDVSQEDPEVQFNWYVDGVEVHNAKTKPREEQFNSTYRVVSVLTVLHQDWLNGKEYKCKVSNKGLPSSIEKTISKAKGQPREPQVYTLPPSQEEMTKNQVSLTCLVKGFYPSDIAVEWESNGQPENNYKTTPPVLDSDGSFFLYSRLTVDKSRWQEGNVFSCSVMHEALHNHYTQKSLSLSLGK
light: EIVLTQSPATLSLSPGERATLSCRASENVGTYISWYQQKPGQAPRLLIYGASNRYTGIPARFSGSGSGTDFTLTISSLEPEDFAVYYCGESYGHLYTFGGGTKVEIKRTVAAPSVFIFPPSDEQLKSGTASVVCLLNNFYPREAKVQWKVDNALQSGNSQESVTEQDSKDSTYSLSSTLTLSKADYEKHKVYACEVTHQGLSSPVTKSFNRGEC
notes: Two identical fused chains and two identical natural chains; also called H4 + L0
With B6, the binding result in assay [1] was “binds”.

B7: bispecific antibody LAG3-G15-LN (bispecific antibody, human IgG4 S228P, kappa)
heavy: not shown
light: EVQLVESGGGLVQPGGSLRLSCAASGYTVSSYCMGWFRQAPGKGREGVSAIDSDGSVSYADSVKGRFTISKDNSKNTLYLQMNSLRAEDTAVYFCAADLCWVDQDQGEYNTWGQGTLVTVSSGGGGSGGGGSGGGGSEIVLTQSPATLSLSPGERATLSCRASENVGTYISWYQQKPGQAPRLLIYGASNRYTGIPARFSGSGSGTDFTLTISSLEPEDFAVYYCGESYGHLYTFGGGTKVEIKRTVAAPSVFIFPPSDEQLKSGTASVVCLLNNFYPREAKVQWKVDNALQSGNSQESVTEQDSKDSTYSLSSTLTLSKADYEKHKVYACEVTHQGLSSPVTKSFNRGEC
notes: Two identical fused chains and two identical natural chains; also called L6 + H0
As to B7, the binding result in assay [1] is listed as “binds”.

B8: bispecific antibody LAG3-G15-LC (bispecific antibody, human IgG4 S228P, kappa)
heavy: not shown
light: EIVLTQSPATLSLSPGERATLSCRASENVGTYISWYQQKPGQAPRLLIYGASNRYTGIPARFSGSGSGTDFTLTISSLEPEDFAVYYCGESYGHLYTFGGGTKVEIKRTVAAPSVFIFPPSDEQLKSGTASVVCLLNNFYPREAKVQWKVDNALQSGNSQESVTEQDSKDSTYSLSSTLTLSKADYEKHKVYACEVTHQGLSSPVTKSFNRGECGGGGSGGGGSGGGGSEVQLVESGGGLVQPGGSLRLSCAASGYTVSSYCMGWFRQAPGKGREGVSAIDSDGSVSYADSVKGRFTISKDNSKNTLYLQMNSLRAEDTAVYFCAADLCWVDQDQGEYNTWGQGTLVTVSS
notes: Two identical fused chains and two identical natural chains; also called L5 + H0
Turning to B8, the binding result in assay [2] and in assay [1] was “binds” each time.

B9: bispecific antibody LAG3-G9-LN (bispecific antibody, human IgG4 S228P, kappa)
heavy: not shown
light: EVQLVESGGGLVQPGGSLRLSCAASGYTVSSYCMGWFRQAPGKGREGVSAIDSDGSVSYADSVKGRFTISKDNSKNTLYLQMNSLRAEDTAVYFCAADLCWVDQDQGEYNTWGQGTLVTVSSGGGGSGGGSEIVLTQSPATLSLSPGERATLSCRASENVGTYISWYQQKPGQAPRLLIYGASNRYTGIPARFSGSGSGTDFTLTISSLEPEDFAVYYCGESYGHLYTFGGGTKVEIKRTVAAPSVFIFPPSDEQLKSGTASVVCLLNNFYPREAKVQWKVDNALQSGNSQESVTEQDSKDSTYSLSSTLTLSKADYEKHKVYACEVTHQGLSSPVTKSFNRGEC
notes: Two identical fused chains and two identical natural chains; also called L4 + H0
Consider B9, for which the binding result in assay [1] is “binds”.

B10: bispecific antibody LAG3-E-LC (bispecific antibody, human IgG4 S228P, kappa)
heavy: not shown
light: EIVLTQSPATLSLSPGERATLSCRASENVGTYISWYQQKPGQAPRLLIYGASNRYTGIPARFSGSGSGTDFTLTISSLEPEDFAVYYCGESYGHLYTFGGGTKVEIKRTVAAPSVFIFPPSDEQLKSGTASVVCLLNNFYPREAKVQWKVDNALQSGNSQESVTEQDSKDSTYSLSSTLTLSKADYEKHKVYACEVTHQGLSSPVTKSFNRGECEPKSSDKTHTSPPSPEVQLVESGGGLVQPGGSLRLSCAASGYTVSSYCMGWFRQAPGKGREGVSAIDSDGSVSYADSVKGRFTISKDNSKNTLYLQMNSLRAEDTAVYFCAADLCWVDQDQGEYNTWGQGTLVTVSS
notes: Two identical fused chains and two identical natural chains; also called L1 + H0
As to B10, the binding result in assay [1] is given as “binds”.

B11: anti-CD47 monoclonal antibody (mAb) (antibody, human IgG4 S228P, kappa, V domains shown)
VH: EVQLVQSGAEVKKPGSSVKVSCKASGYSFTHHWIHWVRQAPGQGLEWMGMIDASDSETRLSQKFKDRVTITADKSTSTAYMELSSLRSEDTAVYYCARLGRYYFDYWGQGTTVTVSS
VL: EIVLTQSPATLSLSPGERATLSCRASENVGTYISWYQQKPGQAPRLLIYGASNRYTGIPARFSGSGSGTDFTLTISSLEPEDFAVYYCGESYGHLYTFGGGTKVEIKR
notes: Full-length antibody composed of heavy chain H0 and light chain L0; also called anti-CD47 mAb; anti-CD47 antibody control
On to B11, for which the binding result in assay [2] was “binds”.

B12: bispecific antibody LAG3-G9-LC (bispecific antibody, human IgG4 S228P, kappa)
heavy: not shown
light: EIVLTQSPATLSLSPGERATLSCRASENVGTYISWYQQKPGQAPRLLIYGASNRYTGIPARFSGSGSGTDFTLTISSLEPEDFAVYYCGESYGHLYTFGGGTKVEIKRTVAAPSVFIFPPSDEQLKSGTASVVCLLNNFYPREAKVQWKVDNALQSGNSQESVTEQDSKDSTYSLSSTLTLSKADYEKHKVYACEVTHQGLSSPVTKSFNRGECGGGGSGGGSEVQLVESGGGLVQPGGSLRLSCAASGYTVSSYCMGWFRQAPGKGREGVSAIDSDGSVSYADSVKGRFTISKDNSKNTLYLQMNSLRAEDTAVYFCAADLCWVDQDQGEYNTWGQGTLVTVSS
notes: Two identical fused chains and two identical natural chains; also called L3 + H0
As to B12, the binding result in assay [2] and in assay [1] was “binds” in each case.

B13: bispecific antibody LAG3-E-LN (bispecific antibody, human IgG4 S228P, kappa)
heavy: not shown
light: EVQLVESGGGLVQPGGSLRLSCAASGYTVSSYCMGWFRQAPGKGREGVSAIDSDGSVSYADSVKGRFTISKDNSKNTLYLQMNSLRAEDTAVYFCAADLCWVDQDQGEYNTWGQGTLVTVSSEPKSSDKTHTSPPSPEIVLTQSPATLSLSPGERATLSCRASENVGTYISWYQQKPGQAPRLLIYGASNRYTGIPARFSGSGSGTDFTLTISSLEPEDFAVYYCGESYGHLYTFGGGTKVEIKRTVAAPSVFIFPPSDEQLKSGTASVVCLLNNFYPREAKVQWKVDNALQSGNSQESVTEQDSKDSTYSLSSTLTLSKADYEKHKVYACEVTHQGLSSPVTKSFNRGEC
notes: Two identical fused chains and two identical natural chains; also called L2 + H0
Regarding B13, the binding result in assay [1] is recorded as “binds”.

(Values after patent US20220267436A1 (NANJING GENSCRIPT BIOTECH, published 2022).)
